Like-named read-outs stand apart in the source and are kept apart here. Values belong to the binder of their own block, whether it stands above or below them. Starred links: 1 amine or outer side, 2 acyl side, 3 side chain; linkers in the order of their positions; H or OH if unused. Non-standard residues stand in square brackets, D forms with d. No end group written: not given here. Pyn = 1-pyrenylalanine, O=C([C@H](Cc1ccc2ccc3cccc4ccc1c2c34)N[*:1])[*:2]; Phe(4-Cl) = N[C@@H](Cc1ccc(Cl)cc1)C(=O)O; Lys(Me2) = CN(C)CCCC[C@H](N)C(=O)O; Cha = N[C@@H](CC1CCCCC1)C(=O)O
What was measured:
[1] = target: T1, APJ (orphan G protein-coupled receptor protein); experiment: cell-based or functional assay
T1 chain: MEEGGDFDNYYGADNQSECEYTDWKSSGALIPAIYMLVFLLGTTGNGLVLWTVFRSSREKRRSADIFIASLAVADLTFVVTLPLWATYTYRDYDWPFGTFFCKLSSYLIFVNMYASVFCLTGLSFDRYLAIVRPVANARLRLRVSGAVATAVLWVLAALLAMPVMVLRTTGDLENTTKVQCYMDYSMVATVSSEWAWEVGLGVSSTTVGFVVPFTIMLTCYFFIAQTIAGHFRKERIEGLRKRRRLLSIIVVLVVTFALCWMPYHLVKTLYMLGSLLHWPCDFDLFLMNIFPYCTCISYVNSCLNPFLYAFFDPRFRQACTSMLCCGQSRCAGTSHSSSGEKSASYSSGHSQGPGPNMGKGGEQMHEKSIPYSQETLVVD

[2] = target: T1, APJ (orphan G protein-coupled receptor …); experiment: radioligand competition, compound of Ref. Ex. 2 as labelled ligand, CHO-A10 membrane fraction
[3] = target: T1, APJ (orphan G protein-coupled receptor …); experiment: radioligand competition, 125I-labelled compound of Ref. Ex. 1 (100 pM), CHO-A10 membrane fraction
Experimental: This product was mixed with an equal volume of an assay buffer (50 mM Tris-HCl/pH 7.5, 5 mM EDTA, 0.5 mM PMSF, 20 μg/ml leupeptin, 0.1 μg/ml pepstatin A, 4 μg/ml E-64 (Peptide Research Laboratory, Co.), 0.1% bovine serum albumin) and stored at −30° C. before use.
CHO-A10 cells were cultured, recovered with PBS containing 5 mM EDTA from a culture vessel, and suspended in the above-mentioned assay buffer not containing bovine serum albumin. The cells were homogenized 3 times at 12,000 rpm for 15 seconds by a Polytron homogenizer (manufactured by Kinematica Inc.) and then centrifuged (1000×g, 4° C., 10 minutes), and the supernatant was recovered. The precipitates were subjected again to the same procedure as above, and the respective supernatants were combined and centrifuged at 100,000×g, 4° C. for 1 hour, to recover precipitates (membrane fraction). The membrane fraction was suspended again in a small amount of the buffer, homogenized with a Teflon homogenizer and stored at −80° C. before use.
Binding assay was carried out under the following conditions. […] containing 0.25 μg of the membrane fraction, the ¹²⁵I-labeled compound at a final concentration of 100 pM, a test sample and an assay buffer were put onto each well of a 96-well polypropylene plate, and incubated at room temperature for 1.5 hours. Measurement of non-specific binding was carried out using a well containing 1 μM unlabeled compound in place of the test sample. After the incubation was finished, a cell harvester (Packard) adapted to 96 wells and a filter unit (GF/C, Packard) were used for separation thereby capturing the membrane fraction on the filter. After the filter was sufficiently dried, Microcinti 0 (Packard) was added thereto, and using Top Count (Packard), the amount of the labeled material captured together with the membrane fraction on the filter was measured.

[4] = target: T1, APJ (orphan G protein-coupled receptor …); experiment: cell-based or functional assay
[5] = target: T1, APJ (orphan G protein-coupled receptor …); experiment: radioligand competition, compound of Ref. Ex. 2 as labelled ligand, CHO-A10 membrane fraction
[6] = target: T1, APJ (orphan G protein-coupled receptor …); experiment: radioligand competition, 125I-labelled compound of Ref. Ex. 1 (100 pM), CHO-A10 membrane fraction
[7] = target: T1, APJ (orphan G protein-coupled receptor …); experiment: cell-based or functional assay
[8] = target: T1, APJ (orphan G protein-coupled receptor …); experiment: radioligand competition, compound of Ref. Ex. 2 as labelled ligand, CHO-A10 membrane fraction

Binder: RRFRPRLSHKGPMPF (also called Compound in Ex. 33) [Arg-Arg-Phe-Arg-Pro-Arg-Leu-Ser-His-Lys-Gly-Pro-Met-Pro-Phe]
EC50, inhibition of forskolin-stimulated cAMP production (CHO-A10 clone 6 cells) [1]: 1.1 nM | IC50 [2]: 0.37 nM

Binder: RPRLFARGPMF (also called Compound in Ex. 47) [Arg-Pro-Arg-Leu-Phe-Ala-Arg-Gly-Pro-Met-Phe]
EC50, inhibition of forskolin-stimulated cAMP production (CHO-A10 clone 6 cells) [1]: 0.36 nM | IC50 [2]: 1.8 nM

Binder: RRRRPRLSHKGPMPF [Arg-Arg-Arg-Arg-Pro-Arg-Leu-Ser-His-Lys-Gly-Pro-Met-Pro-Phe]
EC50, inhibition of forskolin-stimulated cAMP production (CHO-A10 clone 6 cells) [1]: 0.32 nM

Binder: RRQRPRLSARGP [Arg-Arg-Gln-Arg-Pro-Arg-Leu-Ser-Ala-Arg-Gly-Pro]
EC50, inhibition of forskolin-stimulated cAMP production (CHO-A10 clone 6 cells) [1]: 0.26 nM

Binder: RRQRPRLSARGPMPF (also called Compound in Ex. 17) [Arg-Arg-Gln-Arg-Pro-Arg-Leu-Ser-Ala-Arg-Gly-Pro-Met-Pro-Phe]
IC50 [2]: 0.036 nM

Binder: RRKRPRLSHKGPMPF (also called Compound in Ex. 23) [Arg-Arg-Lys-Arg-Pro-Arg-Leu-Ser-His-Lys-Gly-Pro-Met-Pro-Phe]
EC50, inhibition of forskolin-stimulated cAMP production (CHO-A10 clone 6 cells) [1]: 0.31 nM | IC50 [2]: 0.09 nM | IC50 [3]: 9.2 nM

Binder: RP[Lys(Me2)]LSARGPMPF (also called Compound in Ex. 63) [Arg-Pro-Lys(Me)2-Leu-Ser-Ala-Arg-Gly-Pro-Met-Pro-Phe]
EC50, inhibition of forskolin-stimulated cAMP production (CHO-A10 clone 6 cells) [4]: 0.33 nM | IC50 [5]: 0.074 nM | IC50 [6]: 0.33 nM

Binder: RPRLSARGPM (also called Compound in Ex. 27) [Arg-Pro-Arg-Leu-Ser-Ala-Arg-Gly-Pro-Met]
IC50 [2]: 0.11 nM

Binder: RPRLFARGPMPF (also called Compound in Ex. 31) [Arg-Pro-Arg-Leu-Phe-Ala-Arg-Gly-Pro-Met-Pro-Phe]
EC50, inhibition of forskolin-stimulated cAMP production (CHO-A10 clone 6 cells) [1]: 0.14 nM | IC50 [2]: 0.27 nM

Binder: RPRLSHKGPMP[Phe(4-Cl)] (also called Compound in Ex. 8) [Arg-Pro-Arg-Leu-Ser-His-Lys-Gly-Pro-Met-Pro-Phe(Cl)]
EC50, inhibition of forskolin-stimulated cAMP production (CHO-A10 clone 6 cells) [7]: 0.34 nM | IC50 [8]: 0.039 nM | IC50 [3]: 13 nM

Further lines, results first:

EC50, inhibition of forskolin-stimulated cAMP production (CHO-A10 clone 6 cells) [1]: 0.18 nM | IC50 [2]: 0.023 nM | IC50 [3]: 2.5 nM
Binder: RRQRPRLSARGPM (also called Compound in Ex. 18) [Arg-Arg-Gln-Arg-Pro-Arg-Leu-Ser-Ala-Arg-Gly-Pro-Met]

EC50, inhibition of forskolin-stimulated cAMP production (CHO-A10 clone 6 cells) [4]: 2.2 nM | IC50 [5]: 0.56 nM | IC50 [6]: 2.2 nM
Binder: RPRLSARGP[Cha]P[Pyn] (not fully specified; printed as Arg-Pro-Arg-Leu-Ser-Ala-Arg-Gly-Pro-Cha-Pro-Pyn, also called Compound in Ex. 61) [Arg-Pro-Arg-Leu-Ser-Ala-Arg-Gly-Pro-Cha-Pro-Pyn]

EC50, inhibition of forskolin-stimulated cAMP production (CHO-A10 clone 6 cells) [1]: 0.25 nM | IC50 [2]: 0.057 nM | IC50 [3]: 27 nM
Binder: RPRLSARGPMPF (also called Compound in Ex. 24) [Arg-Pro-Arg-Leu-Ser-Ala-Arg-Gly-Pro-Met-Pro-Phe]

EC50, inhibition of forskolin-stimulated cAMP production (CHO-A10 clone 6 cells) [4]: 0.23 nM | IC50 [5]: 0.14 nM | IC50 [6]: 0.23 nM
B1: Arg-Arg-Gln-Arg-Pro-Arg-Leu-Ser-Ala-Arg-Gly-Gly-Cha (peptide)
peptide: RRQRPRLSARGG[Cha]
modifications: not fully specified; printed as Arg-Arg-Gln-Arg-Pro-Arg-Leu-Ser-Ala-Arg-Gly-Gly-Cha
notes: also called Compound in Ex. 62

EC50, inhibition of forskolin-stimulated cAMP production (CHO-A10 clone 6 cells) [4]: 1.1 nM | IC50 [5]: 0.8 nM | IC50 [6]: 1.1 nM
Binder: RPRLSARGP[Cha][Pyn] (not fully specified; printed as Arg-Pro-Arg-Leu-Ser-Ala-Arg-Gly-Pro-Cha-Pyn, also called Compound in Ex. 60) [Arg-Pro-Arg-Leu-Ser-Ala-Arg-Gly-Pro-Cha-Pyn]

EC50, inhibition of forskolin-stimulated cAMP production (CHO-A10 clone 6 cells) [4]: 0.38 nM | IC50 [6]: 0.38 nM
Binder: RPRLSA[Lys(Me2)]GPMPF (also called Compound in Ex. 64) [Arg-Pro-Arg-Leu-Ser-Ala-Lys(Me)2-Gly-Pro-Met-Pro-Phe]

EC50, inhibition of forskolin-stimulated cAMP production (CHO-A10 clone 6 cells) [1]: 0.25 nM | IC50 [2]: 0.067 nM | IC50 [3]: 34 nM
Binder: RRARPRLSHKGPMPF (also called Compound in Ex. 25) [Arg-Arg-Ala-Arg-Pro-Arg-Leu-Ser-His-Lys-Gly-Pro-Met-Pro-Phe]
